Source: patent US20160137732A1

Target: complement protein C1q (human) (UniProt P02745)
Test: cell-based or functional assay

UniProt P02745, sequence (P02745 23-245 limits assumed, chain 1 of 3): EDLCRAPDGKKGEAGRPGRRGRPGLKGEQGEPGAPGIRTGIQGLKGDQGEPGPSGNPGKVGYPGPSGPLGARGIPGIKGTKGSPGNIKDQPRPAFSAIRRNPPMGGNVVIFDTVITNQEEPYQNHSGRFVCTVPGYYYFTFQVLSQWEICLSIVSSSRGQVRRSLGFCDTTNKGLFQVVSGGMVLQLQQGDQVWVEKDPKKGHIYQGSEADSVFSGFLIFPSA
UniProt P02745, sequence (P02746 28-253 limits assumed, chain 2 of 3, further chain): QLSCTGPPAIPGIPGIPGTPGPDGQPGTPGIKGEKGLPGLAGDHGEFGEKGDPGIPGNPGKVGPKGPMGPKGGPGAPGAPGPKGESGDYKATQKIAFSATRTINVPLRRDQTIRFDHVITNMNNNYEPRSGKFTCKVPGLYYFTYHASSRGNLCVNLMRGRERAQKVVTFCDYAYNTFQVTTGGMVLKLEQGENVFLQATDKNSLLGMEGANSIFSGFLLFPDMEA
UniProt P02745, sequence (P02747 29-245 limits assumed, chain 3 of 3, further chain): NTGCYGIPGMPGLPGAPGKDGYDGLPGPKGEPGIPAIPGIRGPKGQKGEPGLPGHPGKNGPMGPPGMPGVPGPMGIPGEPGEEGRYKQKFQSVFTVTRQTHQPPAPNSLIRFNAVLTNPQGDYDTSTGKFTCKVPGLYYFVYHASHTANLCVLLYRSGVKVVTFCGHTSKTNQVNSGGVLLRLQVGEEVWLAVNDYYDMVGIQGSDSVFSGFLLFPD

average fold-increase in the EC50 value compared with wild-type Hu1D10-IgG1 antibody (CDC) [fold]	average fold-increase in the maximum percent lysis (CDC) [fold]	fold-increase in the EC50 value compared with wild-type Hu1D10-IgG1 antibody (CDC) [fold]	fold-increase in the maximum percent lysis (CDC) [fold]	Substance
13 to 16	1.3 to 1.4			Hu1D10-IgG1 double mutant S324N/I332F (antibody)
13 to 16	1.3 to 1.4			Hu1D10-IgG1 double mutant S324N/I332M (antibody)
13 to 16	1.3 to 1.4			Hu1D10-IgG1 double mutant S324W/I332F (antibody)
13 to 16	1.3 to 1.4			Hu1D10-IgG1 double mutant S324W/I332M (antibody)
		2.5	1.2 to 1.4	Hu1D10-IgG1 single mutant I332F (antibody)
		1.5	1.2 to 1.4	Hu1D10-IgG1 single mutant I332G (antibody)
		2.5	1.2 to 1.4	Hu1D10-IgG1 single mutant I332M (antibody)
		2		Hu1D10-IgG1 single mutant S324M (antibody)
		2		Hu1D10-IgG1 single mutant S324Y (antibody)
